Assay results reported in publication doi:10.1101/2020.01.17.910273, “Ribosome association primes the stringent factor Rel for recruitment of deacylated tRNA to ribosomal A-site”.

Experiments:
Assay in all cases: EMSA; EMSA: HEPES:Polymix buffer, 5 mM Mg2+, 0.1 uM tRNA or mRNA(MVF), with or without 1 uM mRNA(MVF) competitor, 5 min at 37 C; pH not in material
Settings in all cases: protein: recombinant; single strand
Rel NTD = Rel NTD (Bacillus subtilis, UniProt O54408 1-373)
Rel = Rel (Bacillus subtilis, UniProt O54408 1-734)
Rel TGS-Helical = Rel TGS-Helical (Bacillus subtilis, UniProt O54408 374-583)
Rel TGS-Helical, sequence (O54408 374-583): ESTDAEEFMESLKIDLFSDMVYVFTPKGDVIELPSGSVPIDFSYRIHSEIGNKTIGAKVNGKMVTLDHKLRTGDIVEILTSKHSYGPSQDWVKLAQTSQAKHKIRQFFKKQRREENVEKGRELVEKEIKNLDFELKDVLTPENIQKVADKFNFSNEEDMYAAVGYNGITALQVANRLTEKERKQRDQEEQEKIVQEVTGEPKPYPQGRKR

Rel NTD, sequence (O54408 1-373): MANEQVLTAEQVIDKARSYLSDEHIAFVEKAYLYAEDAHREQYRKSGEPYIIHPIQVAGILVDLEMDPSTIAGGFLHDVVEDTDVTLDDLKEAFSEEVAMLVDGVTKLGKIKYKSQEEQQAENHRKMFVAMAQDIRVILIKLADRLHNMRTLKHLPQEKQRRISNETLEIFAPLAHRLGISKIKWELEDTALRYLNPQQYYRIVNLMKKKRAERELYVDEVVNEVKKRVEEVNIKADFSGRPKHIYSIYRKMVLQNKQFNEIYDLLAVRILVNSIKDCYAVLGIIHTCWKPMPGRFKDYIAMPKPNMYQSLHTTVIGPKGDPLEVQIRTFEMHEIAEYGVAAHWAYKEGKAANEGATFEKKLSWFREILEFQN
Rel, sequence (O54408 whole entry): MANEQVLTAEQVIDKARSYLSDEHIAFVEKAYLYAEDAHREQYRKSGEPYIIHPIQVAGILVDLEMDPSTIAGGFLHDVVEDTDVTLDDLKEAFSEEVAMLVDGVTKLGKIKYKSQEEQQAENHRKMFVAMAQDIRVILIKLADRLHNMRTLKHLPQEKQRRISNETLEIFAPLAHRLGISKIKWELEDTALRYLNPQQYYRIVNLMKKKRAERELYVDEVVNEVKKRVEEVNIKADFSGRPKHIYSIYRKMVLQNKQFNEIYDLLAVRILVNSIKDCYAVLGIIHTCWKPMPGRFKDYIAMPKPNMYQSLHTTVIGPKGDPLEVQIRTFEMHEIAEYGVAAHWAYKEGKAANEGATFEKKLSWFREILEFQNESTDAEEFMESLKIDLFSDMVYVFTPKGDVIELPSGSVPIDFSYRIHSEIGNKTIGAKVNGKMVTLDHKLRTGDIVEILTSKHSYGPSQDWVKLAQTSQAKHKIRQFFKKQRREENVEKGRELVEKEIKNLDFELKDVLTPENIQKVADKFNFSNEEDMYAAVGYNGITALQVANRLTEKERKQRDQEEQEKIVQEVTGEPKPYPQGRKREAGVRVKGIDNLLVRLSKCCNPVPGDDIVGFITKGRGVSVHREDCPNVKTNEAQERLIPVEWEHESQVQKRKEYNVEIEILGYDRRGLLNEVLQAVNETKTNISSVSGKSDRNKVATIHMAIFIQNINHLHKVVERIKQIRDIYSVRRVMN

Binder: GGCAAGGAGGAGAUAAGAAUGGUUUUCUAAUA (ssRNA) [mRNA(MVF)]
- apparent K (half saturation) (Rel NTD): 680 ± 30 nM
- apparent K (half saturation) (Rel): 490 ± 10 nM
- binding result (Rel TGS-Helical): no binding
